Test results: publication PMC3493965 (The Journal of Biological Chemistry, 2012)

Target: TaCDC48-L745W (W466F, W541Y, L745W) (T. acidophilum, UniProt O05209 1-745, W466F | W541Y | L745W)
Test: tryptophan fluorescence shift

TaCDC48-L745W (W466F, W541Y, L745W), sequence (O05209 whole entry W466F/W541Y/L745W): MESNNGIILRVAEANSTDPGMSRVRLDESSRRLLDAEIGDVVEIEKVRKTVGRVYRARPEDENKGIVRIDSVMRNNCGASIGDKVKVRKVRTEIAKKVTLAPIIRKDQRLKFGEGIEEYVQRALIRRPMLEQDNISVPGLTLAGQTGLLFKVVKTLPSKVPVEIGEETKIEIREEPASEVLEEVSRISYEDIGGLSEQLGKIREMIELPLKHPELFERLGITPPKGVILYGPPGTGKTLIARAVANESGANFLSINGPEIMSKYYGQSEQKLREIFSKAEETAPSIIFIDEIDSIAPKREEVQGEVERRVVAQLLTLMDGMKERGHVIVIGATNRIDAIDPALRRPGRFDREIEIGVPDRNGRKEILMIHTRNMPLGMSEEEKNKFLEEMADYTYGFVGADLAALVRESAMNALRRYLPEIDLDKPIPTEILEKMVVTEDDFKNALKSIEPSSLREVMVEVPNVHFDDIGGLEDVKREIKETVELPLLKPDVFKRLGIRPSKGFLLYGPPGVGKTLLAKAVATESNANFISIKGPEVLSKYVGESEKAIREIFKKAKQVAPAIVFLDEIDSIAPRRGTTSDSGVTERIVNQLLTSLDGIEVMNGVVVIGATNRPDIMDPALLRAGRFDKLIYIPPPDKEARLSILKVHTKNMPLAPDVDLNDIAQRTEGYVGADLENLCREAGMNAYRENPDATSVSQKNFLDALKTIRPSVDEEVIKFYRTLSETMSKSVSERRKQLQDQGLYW

B1: Thermoplasma acidophilum 20S proteasome core particle, recombinant (complex, T. acidophilum)
chain 1: MQQGQMAYDRAITVFSPDGRLFQVEYAREAVKKGSTALGMKFANGVLLISDKKVRSRLIEQNSIEKIQLIDDYVAAVTSGLVADARVLVDFARISAQQEKVTYGSLVNIENLVKRVADQMQQYTQYGGVRPYGVSLIFAGIDQIGPRLFDCDPAGTINEYKATAIGSGKDAVVSFLEREYKENLPEKEAVTLGIKALKSSLEEGEELKAPEIASITVGNKYRIYDQEEVKKFL
chain 2: TTTVGITLKDAVIMATERRVTMENFIMHKNGKKLFQIDTYTGMTIAGLVGDAQVLVRYMKAELELYRLQRRVNMPIEAVATLLSNMLNQVKYMPYMVQLLVGGIDTAPHVFSIDAAGGSVEDIYASTGSGSPFVYGVLESQYSEKMTVDEGVDLVIRAISAAKQRDSASGGMIDVAVITRKDGYVQLPTDQIESRIRKLGLIL
B1: binds.
